This note sets out measurements from patent publication US20040002450A1, “Y17 - isolated molecules comprising epitopes containing sulfated moieties, antibodies to such epitopes, and uses thereof” (priority 2000, published 2004).

One data set has as its system MOLT-4 cells. Briefly: T-ALL (MOLT4) model in SCID mice. Format: in vivo. The protocol:
The in vivo mouse model for T-ALL uses SCID mice (Jackson Laboratories) injected with MOLT4 cells derived from a T cell leukemia patient.
In one experiment, SCID mice were pretreated with 100 mg/kg Cytoxan (CTX, Cyclophosphamid for injection, Mead Johnson). Eleven days after CTX injection, MOLT-4 cells were injected intravenously into the tail vein. Control mice were injected with PBS alone. One week post-MOLT-4 injection mice were injected with CONY1-Doxorubicin, which is a conjugate between scFv CON Y1 polypeptide, having KAK amino acid residues at its carboxy end and doxorubicin via a short organic linker; CONY1, which is a scFv antibody fragment derived from Y1 scFv in which the DNA sequences encoding the myc tag of Y1 were deleted and replaced with a DNA sequence encoding the amino acids lysine, alanine, lysine (KAK); or free Doxorubicin. The mice were injected three times per week for three weeks. […] (Table M).
Mice started to die 32 days post cell inoculation, and the surviving mice were sacrificed at this time. Bone marrow cells were analyzed by flow cytometry using anti-human CD44-FITC and Y1-Biotin/SAV-PE. Blood samples from several animals were monitored for platelet and white blood cell count. Livers were weighted and examined for appearance. Other organs were also examined for tumor appearance.
In a second experiment, SCID mice were i.v. injected with 2×10^7 MOLT-4 cells/mouse, 5 days post treatment with cyclophosphamide. Anti-cancer agents or PBS (negative control animals) were injected i.v. three times/week from day 5 post MOLT-4 cells injection and onward. On day 35, blood was drawn from the animals, the animals were sacrificed, and their livers were excised and weighed. In the untreated, PBS-treated MOLT-4 cell-bearing animals, the liver presented with a very massive tumor growth, and its size was increased 2-3-fold relative to PBS control uninfected animals. In this experiment, there were five treatment groups:
In parallel, portions of liver tissue were taken for histology and cell harvesting for FACS analysis. The survival rate of another group of treated animals was recorded relative to that of control untreated mice.
In a third experiment, using the identical SCID/MOLT-4 protocol, there were 6 groups: […]

In data set [1] the test system is KG-1 cells. Briefly: AML KG-1 model in SCID/NOD mice. The format is in vivo. The protocol:
The in vivo mouse model for human AML uses SCID/NOD mice (Jackson Laboratories) inoculated with KG-1 cells derived from a human AML cell line.
In a first experiment, NOD/SCID mice were pretreated with 100 mg/kg CYTOXAN®. Four days post CYTOXANT injection, KG-1 cells were injected intravenously into the tail vein of six groups of mice. (Table N, Groups 2 and 5-9). One group of mice (Table N, Group 1) was injected with PBS alone (control).
Beginning 19 days post KG-1 injection mice were treated with: CONY1, Doxorubicin, CONY1-Doxorubicin conjugate, or Mylotarg®. (Mylotarg® is a monoclonal antibody (anti CD33) conjugated chemically to calcheamicin recently approved by the FDA for treatment of AML patients age 60 and over in a first relapse.) Mice were treated once or three times per week for three weeks. […]
Mice were sacrificed from 60 to 65 days post cell injection. Bone marrow and blood samples were analyzed by flow cytometry using mouse anti human CD34-FITC (IQP 144F) (or anti CD44-FITC (MCA89F, Serotec)) and Y1-Biotin/SAV-PE. […]
An additional experiment was performed in which SCID-NOD mice were i.v. injected with 3×10^4 MOLT-4 cells/mouse 5 days post treatment with cyclophosphamide. […] Bone marrow was extracted and analyzed by FACS analysis using a commercially available antiCD44 antibody for the detection of MOLT-4 cells in the mice bone marrow cell population.

Data set [2] deals with T1, GPIb (glycocalicin) derived from platelets (Homo sapiens, UniProt P07359).
T1 construct: glycocalicin (soluble, extracellular fragment of GPIbα); from tissue; host or cells: human platelets
Briefly: ELISA to GC (glycocalicin), monomer versus dimer. The format is binding. The protocol: An ELISA assay was performed to ascertain the differences in binding between the monomer (the Y1 scFv-also known as Y1-kak) and the dimer Y1-cys-kak (the cysteine dimer) for antigen GPIb (glycocalicin) derived from platelets. A polyclonal anti single chain antibody and/or a novel polyclonal anti-VL (derived from rabbits) and anti-rabbit HRP, were used to detect the binding to GPIb. […] For instance, to reach 0.8 OD units 12.8 μg/ml of monomer was used compared to only 0.1 μg/ml of dimer.
100 ml of purified glycocalicin was incubated in a 96 flat well maxisorp plates, overnight at 4 degrees celsius. The plate was washed with PBST (PBS+0.05% tween) 3 times, then […] of PBST-milk (PBST+2% Non fat milk), for 1 hr at room temperature. The plate was washed with PBST, and the monomer or dimer (100 ml) was added in PBST-milk at different concentrations for 1 hr at room temp. Then the plate was washed and anti-VL polyclonal (derived from immunized rabbits with VL derived from Y1) (1:100 diluted in PBST-milk) was added for an hour. The plate was washed and anti-rabbit HRP was added for an additional hour. The plate was washed 5 times and 100 μl TMB substrate was added for approximately 15 minutes then 100 μl of 0.5H2SO4 was added to stop the reaction. The optical density of the plate was measured at 450 nm in an ELISA reader.
In general terms: An ELISA detects its analyte on a solid surface through an enzyme-linked reagent.

The conditions of data set [3]: mouse, in vivo.
Procedure: The radioactive protein was then admixed with unlabeled CONY-1 to yield a solution of 75 μg/ml CONY-1 containing 2.5×10^6 CPM/ml in saline.
Male Balb-C mice were pretreated by intraperitoneal injection of 0.5 ml/mouse of 0.9% NaI. After 2 hours, the mice were injected intravenously with 0.2 ml of the labeled CONY-1 solution, resulting in a ^125I-CONY-1 dose of 15 μg (5×10^5 CPM) per mouse.
At various times after injection, blood was collected over EDTA, mice were sacrificed, and tissues were excised. Samples and organs were taken at 5, 15, and 30 minutes and at 1, 2, 4, 8, and 24 hours after injection. Two to four mice were used per time point. Plasma was separated and either counted for gamma radioactivity or subjected to precipitation with trichloroacetic acid (TCA). After centrifugation, TCA precipitates were subjected to gamma radioactivity counting. Liver, lung, kidney, spleen, and bone marrow samples were weighed and counted for gamma radioactivity. Plasma TCA precipitated radioactivity was plotted against time, and a two-compartment kinetics model was fitted. Organ/tissue total and specific radioactivity values were calculated.
Data set [4] concerns KG-1 cells. Description: Radioreceptor binding assay with KG-1 cells. As to conditions: 2 ng/tube 125I-Y1-IgG tracer. Details: species or system human. The protocol: The assay system involved the use of radioactive ligands that were prepared by iodination with ^125I using chloramine T on the Y1-IgG construct or the Bolton-Hunter (CONY1) reagent. The assay tubes contained 5×10^6 KG-1 cells per 0.2 ml and a labeled tracer with varying amounts of unlabeled competitor, in PBS+0.1% BSA, pH 7.4. After one hour incubation with agitation at 4° C., the cells were thoroughly washed with cold buffer and taken for radioactivity counting.
For the radio receptor binding assay (RRA), 2 ng/tube of ^125I-Y1-IgG was used, and competition was performed with each of the three molecules. […] A rough estimate of the affinity of the Y1-IgG in this experiment is 2×10^−8 M. The corresponding affinity of the dimer is, therefore, 4×10^−8 M.
In a second RRA using labeled CONYL, a 100 ng/tube of ^125I-Y1-IgG was used, and competition was performed with each of the three molecules. […] A rough estimate of the affinity of CONY 1 in this experiment is 10^−6M. The corresponding affinity of the dimer is, therefore, 5×10^−8 M.

B1: CONY1: scFv derived from Y1 scFv in which the myc tag is replaced by lysine, alanine, lysine (KAK); SEQ ID NO: 204 (protein, listed as Homo sapiens)
scFv: MKYLLPTAAAGLLLLAAQPAMAEVQLVESGGGVVRPGGSLRLSCAASGFTFDDYGMSWVRQAPGKGLEWVSGINWNGGSTGYADSVKGRFTISRDNAKNSLYLQMNSLRAEDTAVYYCARMRAPVIWGQGTLVTVSRGGGGSGGGGSGGGGSSELTQDPAVSVALGQTVRITCQGDSLRSYYASWYQQKPGQAPVLVIYGKNNRPSGIPDRFSGSSSGNTASLTITGAQAEDEADYYCNSRDSSGNHVVFGGGTKLTVLGAAAKAK
On to B1, for which the “liver weight versus free Doxorubicin-treated or untreated MOLT-4 mice” value in the data set on MOLT-4 cells (first experiment, three times per week for three weeks, sacrifice 32 days post inoculation) was “weighted significantly less”. Moreover, the survival entry with MOLT-4 cells (mice from three groups with continued treatment) is “prolonged”. The “liver weights / tumor growth in the liver” value in the data set with MOLT-4 cells (second experiment, day 35, i.v. three times/week, scFv or conjugate 75 μg/mouse, Doxorubicin 0.1 mg/kg) was “markedly inhibited tumor growth in the liver”. Also, the “tumor growth (based on liver weights)” value in the data set with MOLT-4 cells (third experiment, scFv 75 μg/mouse, IgG 5 μg/mouse) is “inhibited tumor growth”. Moreover, in the data set with KG-1 cells [1] (KG-1 cells incubated in vitro with scFv before injection (groups 3 and 4)), the “percentage of KG-1 cells in bone marrow (in words)” value is given as “significantly lower percentage”. For the same molecule, the “development of the malignancy / prevalence of bone marrow cancer (in words)” value in the data set on KG-1 cells [1] (additional experiment, day 60, CONY1 scFv 75 μg/mouse three times/week, Mylotarg 7 μg/mouse once a week) is on record as “no effect”. In data set [2], the “concentration used to reach 0.8 OD units” value was 12.8 µg/mL. Moreover, the “distribution between plasma and erythrocytes (in words)” value in data set [3] is given as “did not adhere to erythrocytes”. Also, in data set [3] (iv), the “half-life of blood clearance, first compartment” value was 0.583 h and the “half-life of blood clearance, second compartment” value was found to be 3.17 h.

B2: S-S Y1 dimer: Y1 sulfide bridge dimer compared with CONY1 and Y1-IgG in the radioreceptor assay (protein)
scFv: MEVQLVESGGGVVRPGGSLRLSCAASGFTFDDYGMSWVRQAPGKGLEWVSGINWNGGSTGYADSVKGRFTISRDNAKNSLYLQMNSLRAEDTAVYYCARMRAPVIWGQGTLVTVSRGGGGSGGGGSGGGGSSELTQDPAVSVALGQTVRITCQGDSLRSYYASWYQQKPGQAPVLVIYGKNNRPSGIPDRFSGSSSGNTASLTITGAQAEDEADYYCNSRDSSGNHVVFGGGTKLTVLGGGGCKAK
Consider B2, for which the “affinity relative to the full Y1 antibody” value in the data set with KG-1 cells [4] is recorded as “twofold lower”.
